Data from PMC8467691, “Human Cystathionine γ-Lyase Is Inhibited by S-Nitrosation: A New Crosstalk Mechanism between NO and H2S” (Antioxidants, 2021).

Biological target: the molecule itself
Test: SEC; HiLoad 16/600 Superdex 200 in buffer B (20 mM Tris-HCl, pH 7.5, 150 mM NaCl, 10% glycerol, 100 μM TCEP, 20 μM PLP), after the HisTrap step of the purification

Protein | stoichiometry N
wild-type human cystathionine γ-lyase (enzyme, UniProt P32929 1-405, looked up, human cystathionine γ-lyase (CSE), wild type; TEV and 3C protease recognition sites follow the His6 tag; No cleavage of the tag is told; also called CSE; WT CSE; source: recombinant, synthetic gene in pET-28b, purified (HisTrap FF Crude, Superdex 200 SEC)) MQEKDASSQGFLPHFQHFATQAIHVGQDPEQWTSRAVVPPISLSTTFKQGAPGQHSGFEYSRSGNPTRNCLEKAVAALDGAKYCLAFASGLAATVTITHLLKAGDQIICMDDVYGGTNRYFRQVASEFGLKISFVDCSKIKLLEAAITPETKLVWIETPTNPTQKVIDIEGCAHIVHKHGDIILVVDNTFMSPYFQRPLALGADISMYSATKYMNGHSDVVMGLVSVNCESLHNRLRFLQNSLGAVPSPIDCYLCNRGLKTLHVRMEKHFKNGMAVAQFLESNPWVEKVIYPGLPSHPQHELVKRQCTGCTGMVTFYIKGTLQHAEIFLKNLKLFTLAESLGGFESLAELPAIMTHASVLKNDRDVLGISDTLIRLSVGLEDEEDLLEDLDQALKAAHPPSGSHS | 4
human cystathionine γ-lyase C307S variant (enzyme, UniProt P32929 1-405, looked up, human cystathionine γ-lyase (CSE) with C307S; TEV and 3C protease recognition sites follow the His6 tag; also called C307S CSE; source: recombinant, pET-28b, site-directed mutagenesis of the WT vector, purified (HisTrap FF Crude, Superdex 200 SEC)) MQEKDASSQGFLPHFQHFATQAIHVGQDPEQWTSRAVVPPISLSTTFKQGAPGQHSGFEYSRSGNPTRNCLEKAVAALDGAKYCLAFASGLAATVTITHLLKAGDQIICMDDVYGGTNRYFRQVASEFGLKISFVDCSKIKLLEAAITPETKLVWIETPTNPTQKVIDIEGCAHIVHKHGDIILVVDNTFMSPYFQRPLALGADISMYSATKYMNGHSDVVMGLVSVNCESLHNRLRFLQNSLGAVPSPIDCYLCNRGLKTLHVRMEKHFKNGMAVAQFLESNPWVEKVIYPGLPSHPQHELVKRQSTGCTGMVTFYIKGTLQHAEIFLKNLKLFTLAESLGGFESLAELPAIMTHASVLKNDRDVLGISDTLIRLSVGLEDEEDLLEDLDQALKAAHPPSGSHS | 4
human cystathionine γ-lyase C310S variant (enzyme, UniProt P32929 1-405, looked up, human cystathionine γ-lyase (CSE) with C310S; TEV and 3C protease recognition sites follow the His6 tag; also called C310S CSE; source: recombinant, pET-28b, site-directed mutagenesis of the WT vector, purified (HisTrap FF Crude, Superdex 200 SEC)) MQEKDASSQGFLPHFQHFATQAIHVGQDPEQWTSRAVVPPISLSTTFKQGAPGQHSGFEYSRSGNPTRNCLEKAVAALDGAKYCLAFASGLAATVTITHLLKAGDQIICMDDVYGGTNRYFRQVASEFGLKISFVDCSKIKLLEAAITPETKLVWIETPTNPTQKVIDIEGCAHIVHKHGDIILVVDNTFMSPYFQRPLALGADISMYSATKYMNGHSDVVMGLVSVNCESLHNRLRFLQNSLGAVPSPIDCYLCNRGLKTLHVRMEKHFKNGMAVAQFLESNPWVEKVIYPGLPSHPQHELVKRQCTGSTGMVTFYIKGTLQHAEIFLKNLKLFTLAESLGGFESLAELPAIMTHASVLKNDRDVLGISDTLIRLSVGLEDEEDLLEDLDQALKAAHPPSGSHS | 4
human cystathionine γ-lyase C84S variant (enzyme, UniProt P32929 1-405, looked up, human cystathionine γ-lyase (CSE) with C84S; TEV and 3C protease recognition sites follow the His6 tag; also called C84S CSE; source: recombinant, pET-28b, site-directed mutagenesis of the WT vector, purified (HisTrap FF Crude, Superdex 200 SEC)) MQEKDASSQGFLPHFQHFATQAIHVGQDPEQWTSRAVVPPISLSTTFKQGAPGQHSGFEYSRSGNPTRNCLEKAVAALDGAKYSLAFASGLAATVTITHLLKAGDQIICMDDVYGGTNRYFRQVASEFGLKISFVDCSKIKLLEAAITPETKLVWIETPTNPTQKVIDIEGCAHIVHKHGDIILVVDNTFMSPYFQRPLALGADISMYSATKYMNGHSDVVMGLVSVNCESLHNRLRFLQNSLGAVPSPIDCYLCNRGLKTLHVRMEKHFKNGMAVAQFLESNPWVEKVIYPGLPSHPQHELVKRQCTGCTGMVTFYIKGTLQHAEIFLKNLKLFTLAESLGGFESLAELPAIMTHASVLKNDRDVLGISDTLIRLSVGLEDEEDLLEDLDQALKAAHPPSGSHS | 4
human cystathionine γ-lyase C172S variant (enzyme, UniProt P32929 1-405, looked up, human cystathionine γ-lyase (CSE) with C172S; TEV and 3C protease recognition sites follow the His6 tag; also called C172S CSE; source: recombinant, pET-28b, site-directed mutagenesis of the WT vector, purified (HisTrap FF Crude, Superdex 200 SEC)) MQEKDASSQGFLPHFQHFATQAIHVGQDPEQWTSRAVVPPISLSTTFKQGAPGQHSGFEYSRSGNPTRNCLEKAVAALDGAKYCLAFASGLAATVTITHLLKAGDQIICMDDVYGGTNRYFRQVASEFGLKISFVDCSKIKLLEAAITPETKLVWIETPTNPTQKVIDIEGSAHIVHKHGDIILVVDNTFMSPYFQRPLALGADISMYSATKYMNGHSDVVMGLVSVNCESLHNRLRFLQNSLGAVPSPIDCYLCNRGLKTLHVRMEKHFKNGMAVAQFLESNPWVEKVIYPGLPSHPQHELVKRQCTGCTGMVTFYIKGTLQHAEIFLKNLKLFTLAESLGGFESLAELPAIMTHASVLKNDRDVLGISDTLIRLSVGLEDEEDLLEDLDQALKAAHPPSGSHS | 4
human cystathionine γ-lyase C70S variant (enzyme, UniProt P32929 1-405, looked up, human cystathionine γ-lyase (CSE) with C70S; TEV and 3C protease recognition sites follow the His6 tag; also called C70S CSE; source: recombinant, pET-28b, site-directed mutagenesis of the WT vector, purified (HisTrap FF Crude, Superdex 200 SEC)) MQEKDASSQGFLPHFQHFATQAIHVGQDPEQWTSRAVVPPISLSTTFKQGAPGQHSGFEYSRSGNPTRNSLEKAVAALDGAKYCLAFASGLAATVTITHLLKAGDQIICMDDVYGGTNRYFRQVASEFGLKISFVDCSKIKLLEAAITPETKLVWIETPTNPTQKVIDIEGCAHIVHKHGDIILVVDNTFMSPYFQRPLALGADISMYSATKYMNGHSDVVMGLVSVNCESLHNRLRFLQNSLGAVPSPIDCYLCNRGLKTLHVRMEKHFKNGMAVAQFLESNPWVEKVIYPGLPSHPQHELVKRQCTGCTGMVTFYIKGTLQHAEIFLKNLKLFTLAESLGGFESLAELPAIMTHASVLKNDRDVLGISDTLIRLSVGLEDEEDLLEDLDQALKAAHPPSGSHS | 4
human cystathionine γ-lyase C109S variant (enzyme, UniProt P32929 1-405, looked up, human cystathionine γ-lyase (CSE) with C109S; TEV and 3C protease recognition sites follow the His6 tag; also called C109S CSE; source: recombinant, pET-28b, site-directed mutagenesis of the WT vector, purified (HisTrap FF Crude, Superdex 200 SEC)) MQEKDASSQGFLPHFQHFATQAIHVGQDPEQWTSRAVVPPISLSTTFKQGAPGQHSGFEYSRSGNPTRNCLEKAVAALDGAKYCLAFASGLAATVTITHLLKAGDQIISMDDVYGGTNRYFRQVASEFGLKISFVDCSKIKLLEAAITPETKLVWIETPTNPTQKVIDIEGCAHIVHKHGDIILVVDNTFMSPYFQRPLALGADISMYSATKYMNGHSDVVMGLVSVNCESLHNRLRFLQNSLGAVPSPIDCYLCNRGLKTLHVRMEKHFKNGMAVAQFLESNPWVEKVIYPGLPSHPQHELVKRQCTGCTGMVTFYIKGTLQHAEIFLKNLKLFTLAESLGGFESLAELPAIMTHASVLKNDRDVLGISDTLIRLSVGLEDEEDLLEDLDQALKAAHPPSGSHS | 4
human cystathionine γ-lyase C137S variant (enzyme, UniProt P32929 1-405, looked up, human cystathionine γ-lyase (CSE) with C137S; TEV and 3C protease recognition sites follow the His6 tag; also called C137S CSE; source: recombinant, pET-28b, site-directed mutagenesis of the WT vector, purified (HisTrap FF Crude, Superdex 200 SEC)) MQEKDASSQGFLPHFQHFATQAIHVGQDPEQWTSRAVVPPISLSTTFKQGAPGQHSGFEYSRSGNPTRNCLEKAVAALDGAKYCLAFASGLAATVTITHLLKAGDQIICMDDVYGGTNRYFRQVASEFGLKISFVDSSKIKLLEAAITPETKLVWIETPTNPTQKVIDIEGCAHIVHKHGDIILVVDNTFMSPYFQRPLALGADISMYSATKYMNGHSDVVMGLVSVNCESLHNRLRFLQNSLGAVPSPIDCYLCNRGLKTLHVRMEKHFKNGMAVAQFLESNPWVEKVIYPGLPSHPQHELVKRQCTGCTGMVTFYIKGTLQHAEIFLKNLKLFTLAESLGGFESLAELPAIMTHASVLKNDRDVLGISDTLIRLSVGLEDEEDLLEDLDQALKAAHPPSGSHS | 4
human cystathionine γ-lyase C229S variant (enzyme, UniProt P32929 1-405, looked up, human cystathionine γ-lyase (CSE) with C229S; TEV and 3C protease recognition sites follow the His6 tag; also called C229S CSE; source: recombinant, pET-28b, site-directed mutagenesis of the WT vector, purified (HisTrap FF Crude, Superdex 200 SEC)) MQEKDASSQGFLPHFQHFATQAIHVGQDPEQWTSRAVVPPISLSTTFKQGAPGQHSGFEYSRSGNPTRNCLEKAVAALDGAKYCLAFASGLAATVTITHLLKAGDQIICMDDVYGGTNRYFRQVASEFGLKISFVDCSKIKLLEAAITPETKLVWIETPTNPTQKVIDIEGCAHIVHKHGDIILVVDNTFMSPYFQRPLALGADISMYSATKYMNGHSDVVMGLVSVNSESLHNRLRFLQNSLGAVPSPIDCYLCNRGLKTLHVRMEKHFKNGMAVAQFLESNPWVEKVIYPGLPSHPQHELVKRQCTGCTGMVTFYIKGTLQHAEIFLKNLKLFTLAESLGGFESLAELPAIMTHASVLKNDRDVLGISDTLIRLSVGLEDEEDLLEDLDQALKAAHPPSGSHS | 4
